From PMC6890793, “How water-mediated hydrogen bonds affect chlorophyll a/b selectivity in Water-Soluble Chlorophyll Protein” (Scientific Reports, 2019)

Biological target: the molecule itself
Test: crystal structure; Chl b-reconstituted WSCP crystallised by hanging-drop vapour diffusion (Lv-wt: 0.1 M Na/K phosphate pH 6.0, 3.0 M (NH4)2SO4, 4.7% sucrose; Bo-wt: 0.1 M (NH4)H2PO4 pH 4.5, 10% PEG 3350); data at 100 K; molecular replacement with the Chl a complexes

B1: Water-Soluble Chlorophyll Protein (WSCP) from Brassica oleracea var. botrytis, wild type, reconstituted with Chl b (natural protein)
chain: REQVKDSNGNPVKRGAKYFIQPAKSNGGGLVPAAINILPFCPLGITQTLLPYQPGLPVSFGYEPVIVGTDYIYTSTTINIEFRSEIWPVCNELSKLWAVDVSSSAAKEPAIIIGGERTAPNSLFKIEEATGAHTYKLTTSSGTVGTIPGPWLGAPQLIATNDDAKTLFVKFVKVDDDAT
notes: Water-Soluble Chlorophyll Protein (WSCP), Brassica oleracea var. botrytis (cauliflower), wild type; also called Bo-wt; Chl b Bo-wt; source: E. coli, overexpressed, purified; apoprotein reconstituted with Chl b
- binding result: binds
